Target: the molecule itself
Test: SEC

B1: Mzt1-His6 (natural protein)
chain: MSESTKETIEVLYEIGTLLGTELDKTTLSLCISLCENNVHPEAIAQIIREIRMAQEQTVDTEPS
stoichiometry N: ~12

From PMC3814152 (Molecular Biology of the Cell, 2013)
